Laboratory results taken from patent US20180016312A1 (Pieris, published 2018).
Residue numbers refer to the chain shown, from its start.

B1: mouse angiopoietin-2 (ligand, UniProt O35608 19-496, looked up)
chain: YSNFRKSVDSTGRRQYQVQNGPCSYTFLLPETDSCRSSSSPYMSNAVQRDAPLDYDDSVQRLQVLENILENNTQWLMKLENYIQDNMKKEMVEIQQNVVQNQTAVMIEIGTSLLNQTAAQTRKLTDVEAQVLNQTTRLELQLLQHSISTNKLEKQILDQTSEINKLQNKNSFLEQKVLDMEGKHSEQLQSMKEQKDELQVLVSKQSSVIDELEKKLVTATVNNSLLQKQQHDLMETVNSLLTMMSSPNSKSSVAIRKEEQTTFRDCAEIFKSGLTTSGIYTLTFPNSTEEIKAYCDMDVGGGGWTVIQHREDGSVDFQRTWKEYKEGFGSPLGEYWLGNEFVSQLTGQHRYVLKIQLKDWEGNEAHSLYDHFYLAGEESNYRIHLTGLTGTAGKISSISQPGSDFSTKDSDNDKCICKCSQMLSGGWWFDACGPSNLNGQYYPQKQNTNKFNGIKWYYWKGSGYSLKATTMMIRPADF
notes: Bought recombinant protein; also called mouse Ang-2; mAng-2
B2: human angiopoietin-2 (ligand, UniProt O15123 19-496, looked up)
chain: YNNFRKSMDSIGKKQYQVQHGSCSYTFLLPEMDNCRSSSSPYVSNAVQRDAPLEYDDSVQRLQVLENIMENNTQWLMKLENYIQDNMKKEMVEIQQNAVQNQTAVMIEIGTNLLNQTAEQTRKLTDVEAQVLNQTTRLELQLLEHSLSTNKLEKQILDQTSEINKLQDKNSFLEKKVLAMEDKHIIQLQSIKEEKDQLQVLVSKQNSIIEELEKKIVTATVNNSVLQKQQHDLMETVNNLLTMMSTSNSAKDPTVAKEEQISFRDCAEVFKSGHTTNGIYTLTFPNSTEEIKAYCDMEAGGGGWTIIQRREDGSVDFQRTWKEYKVGFGNPSGEYWLGNEFVSQLTNQQRYVLKIHLKDWEGNEAYSLYEHFYLSSEELNYRIHLKGLTGTAGKISSISQPGNDFSTKDGDNDKCICKCSQMLTGGWWFDACGPSNLNGMYYPQRQNTNKFNGIKWYYWKGSGYSLKATTMMIRPADF
notes: Bought recombinant protein with a His tag (detected by anti-HIS-tag antibody); also called human Ang-2; hAng-2
B3: human angiopoietin-1 (ligand, UniProt Q15389 20-498, looked up)
chain: SNQRRSPENSGRRYNRIQHGQCAYTFILPEHDGNCRESTTDQYNTNALQRDAPHVEPDFSSQKLQHLEHVMENYTQWLQKLENYIVENMKSEMAQIQQNAVQNHTATMLEIGTSLLSQTAEQTRKLTDVETQVLNQTSRLEIQLLENSLSTYKLEKQLLQQTNEILKIHEKNSLLEHKILEMEGKHKEELDTLKEEKENLQGLVTRQTYIIQELEKQLNRATTNNSVLQKQQLELMDTVHNLVNLCTKEGVLLKGGKREEEKPFRDCADVYQAGFNKSGIYTIYINNMPEPKKVFCNMDVNGGGWTVIQHREDGSLDFQRGWKEYKMGFGNPSGEYWLGNEFIFAITSQRQYMLRIELMDWEGNRAYSQYDRFHIGNEKQNYRLYLKGHTGTAGKQSSLILHGADFSTKDADNDNCMCKCALMLTGGWWFDACGPSNLNGMFYTAGQNHGKLNGIKWHYFKGPSYSLRSTTMMIRPLDF
notes: Bought recombinant protein; also called human Ang-1; hAng-1

Columns and labels:
[1] = target: T1, hNGAL lipocalin mutein SEQ ID NO: 9; assay: solution competition ELISA; 0.1 nM SEQ ID NO: 9 with varied soluble ligand, free mutein captured on immobilised hAng-2
T1 construct: Mutein of mature hNGAL; Biotinylated with NHS-PEG4-Biotin for the SPR assay
T1 chain: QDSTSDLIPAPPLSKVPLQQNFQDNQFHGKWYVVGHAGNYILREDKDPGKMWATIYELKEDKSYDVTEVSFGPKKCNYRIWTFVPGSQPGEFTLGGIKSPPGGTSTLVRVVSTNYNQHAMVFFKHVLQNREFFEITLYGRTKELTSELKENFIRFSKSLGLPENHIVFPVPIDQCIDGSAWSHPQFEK
Protocol: (§1) In the following detailed experimental protocol, incubation and washing steps were performed as described above in the competition ELISA protocol (see Example 5).
(§2) The residual supernatants were discarded and 20 μl HRP-labeled anti-lipocalin-mutein antibody was added at a predetermined optimal concentration in PBS-T/BSA and incubated for 1 h at RT. […] After washing, 20 μl fluorogenic HRP substrate (Quantablue, Pierce) was added to each well, and the reaction was allowed to proceed for 60 minutes. The fluorescence intensity of every well on the plate was read using a Genios Plus Microplate reader (Tecan).

[2] = target: T2, hNGAL lipocalin mutein SEQ ID NO: 8; assay: solution competition ELISA; 0.1 nM SEQ ID NO: 8 with varied soluble ligand, free mutein captured on immobilised hAng-2
T2 construct: Mutein of mature hNGAL; Biotinylated with NHS-PEG4-Biotin for the SPR assay
T2 chain: T1 chain with H36Q, P73A, P100D
Protocol: as §1, §2

[3] = target: T3, hNGAL lipocalin mutein SEQ ID NO: 3; assay: solution competition ELISA; 0.1 nM SEQ ID NO: 3 with varied soluble ligand, free mutein captured on immobilised hAng-2
T3 construct: Mutein of mature hNGAL
T3 chain: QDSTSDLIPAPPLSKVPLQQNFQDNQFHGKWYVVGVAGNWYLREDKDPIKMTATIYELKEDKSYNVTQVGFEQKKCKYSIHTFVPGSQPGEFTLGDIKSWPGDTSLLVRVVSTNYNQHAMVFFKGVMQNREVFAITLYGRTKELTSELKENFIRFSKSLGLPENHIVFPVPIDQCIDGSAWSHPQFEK
Protocol: as §1, §2

[4] = target: benchmark antibody 1 (SEQ ID NOs: 17/18); assay: solution competition ELISA; 0.1 nM SEQ ID NO: 17/18 with varied soluble ligand, free antibody captured on immobilised hAng-2
[5] = target: T4, hNGAL lipocalin mutein SEQ ID NO: 11; assay: solution competition ELISA; 0.1 nM SEQ ID NO: 11 with varied soluble ligand, free mutein captured on immobilised hAng-2
T4 construct: Mutein of mature hNGAL; Biotinylated with NHS-PEG4-Biotin for the SPR assay
T4 chain: T1 chain with H36Q, G49V, P100L
Protocol: as §1, §2

[6] = target: T5, hNGAL lipocalin mutein SEQ ID NO: 7; assay: solution competition ELISA; 0.1 nM SEQ ID NO: 7 with varied soluble ligand, free mutein captured on immobilised hAng-2
T5 construct: Mutein of mature hNGAL; Biotinylated with NHS-PEG4-Biotin for the SPR assay
T5 chain: T1 chain with G49E, G103D
Protocol: as §1, §2

[7] = target: T6, hNGAL lipocalin mutein SEQ ID NO: 1; assay: solution competition ELISA; 0.1 nM SEQ ID NO: 1 with varied soluble ligand, free mutein captured on immobilised hAng-2
T6 construct: Mutein of mature hNGAL
T6 chain: T1 chain with H36Q, D65N, E68G, R79T
Protocol: as §1, §2

| Binder | IC50 [1] [pM] | IC50 [2] [pM] | IC50 [3] [pM] | IC50 [4] [pM] | IC50 [5] [pM] | IC50 [6] [pM] | IC50 [7] [pM] |
| --- | --- | --- | --- | --- | --- | --- | --- |
| B1 | 110 | 80 | 1800 | 70 | 50 | 50 | 650 |
| B2 | 760 | 500 | 1400 | 600 | 490 | 410 | 2500 |
| B3 | 1900 | 9300 |  | 26000 | 890 | 470 |  |
